assay: yeast display, Sf9 membrane polyspecificity reagent, FACS + sequencing; frameworks hold sequencing errors
Outline: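 Sorting gates, low and high (top ~1%), were placed on anti-HA fluorescence to track expression and on streptavidin fluorescence to track reagent binding. A clone's polyreactivity label is taken from the gate it came out of. The reagent was 10% biotinylated, detergent-solubilized Sf9 membrane, applied for 1 hour at 4 °C to galactose-induced yeast display cells.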

Row | Sequence | polyreactivity (PSR sort gate)
1 | QVQLVESGGGLVQAGGSLRLSCAASGSISPQNVMGWYRQAPGKERELVAAITWTGTSTYADSVKGRFTISRDNAKNTVYLQMNSLKPEDTAVYYCAARYYAPRWFRYDYWGQGTQVTVSS | low polyreactivity
2 | QVQLVESGGGLVQAGGSLRLSCAASGSISPQNVMGWYTQAPGKERELVAAITGGGSTNYADSVKGRFTISRDNAKNTVFLLMNSLKPEDTAVYYCNADYFQDRLDYWGQGTQVTVSS | low polyreactivity
3 | QVQLVESGGGLVQAGGSLRLSCAASGSISQTYAMGWYRQAPGKERELVAAISSSGASTYYADSVKGRFTISRDNAKNTVYLQMNSLKPEDTAVYYCAVVPSSTYHSYDYWGQGTQVTVSS | high polyreactivity
4 | QVQLVESGGGLVQAGGSLRLSCAASGSISRFYAMGWYRQAPGKERELVAAISWSGGRPYYADSVKGRFTISRDKAKNTVYLQMNSLKPEDTAVYYCNAYRRYNDEDYWGQGTQVTVSS | high polyreactivity
5 | QVQLVESGGGLVQAGGSLRLSCAASGSISRGNVMGWYRQAPGKERELVAGITRGGRTNYADSVKGRFTISRDNAKNTVYLQMNSLKPEDTAVYYCATYTYYVPWRQRGGYPDFDYWGQGTQVTVSS | high polyreactivity
6 | QVQLVESGGGLVQAGGSLRLSCAASGSISRRYVMGWYRQAPGKERELVAAISTSGGSTYYADSVKGRFTISRDNAKNTVYLQMNSLKPEDTAVYYCAADLPVQGGFDYWGQGTQVTVSS | low polyreactivity
7 | QVQLVESGGGLVQAGGSLRLSCAASGSISSKNAMGWYRQAPGKEREFGAVISGTGGSTYYADSVKGRFTISRDNAKNTVYLQMNSLKPEDTAVYYCAAAASSIVSYGYTWTYGYWGQGTQVTVSS | low polyreactivity
8 | QVQLVESGGGLVQAGGSLRLSCAASGSISSKNAMGWYRQAPGKEREFVAVISGTGGSTYYADSVKGRFTISRDNAKNTVYLQMNSLKPEDTAVYYCAAAASSIVSYGYTWTYGYWGQGTQVTVSS | low polyreactivity
9 | QVQLVESGGGLVQAGGSLRLSCAASGSISSQYGMGWYRQAPGKERELVATIRDGGRTNYADSVKGRFTISRDNAKNTVYLQMNCLKPEDTAVYYCAALYWYYYTWPLYDYWGQGSQVTVSS | low polyreactivity
10 | QVQLVESGGGLVQAGGSLRLSCAASGSISVDNTMGWYRQAPGKERELVAAISRSGGTTYYADSVKGRFTISRDNAKNTVYLQMNSLKPEDTAVYYCAKDTLRYRWRSYDYYPEMNYWGQGTQVTVSS | low polyreactivity
11 | QVQLVESGGGLVQAGGSLRLSCAASGSISVPNAMGWYRQAPGKERELVAGITSGDSTHYADSVKGRFSISRDNAKNTVYIQMISLKPEDTAVYYCAAKVPEPPSLDESDYWGQGTQVTVSA | low polyreactivity
12 | QVQLVESGGGLVQAGGSLRLSCAASGSISVRNVMGWYRQAPGKERELVATIRRTGGSTSYADSVKGRFTISRDNAKNTVYLQMNSLKPEDTAVYYCAAVGYTTYRRYDYWGQGTQVTVSS | low polyreactivity
13 | QVQLVESGGGLVQAGGSLRLSCAASGSISVVNMGWYRQPPRKERQFVASITSSGSTTYADSVKGRFTISRDNAKNTVYLQMNSLKPEDTAVYYCAADVGTDYTYQHPAGAAYDYWGEGTQVTVSS | low polyreactivity
14 | QVQLVESGGGLVQAGGSLRLSCAASGSISVVYDMGWYRQAPGTERELVAAIDWSGGSTYYADSVKGRFTISRDNAKNTVYLQMNSLKPEDTAVYYCAADDKVRYYWGQGTQVTVSS | low polyreactivity
15 | QVQLVESGGGLVQAGGSLRLSCAASGSISVYNAMGWYRPAPGKERELVAAISWSGGRTSYADSVKGRFTISRDHAKNTVYLQMNSLKPEDTAVYYCAADELSVLWDEDYWGQVTQVTVSS | low polyreactivity
16 | QVQLVESGGGLVQAGGSLRLSCAASGSISWAYVMGWYRQAPGKERELVAAISSGTSTYYADSVKGRFTLSRDNAKKTVYLQMNSLKPEDTAVYYCAAYYYSYPTNGGYGYWGQGTQVTVSS | low polyreactivity
17 | QVQLVESGGGLVQAGGSLRLSCAASGSISWYYAMGWYRQAPGKEWEGVAAISDSGGDTYYADSVKGRFTISRDNAKNTVYLQMNSLKPEDTAVYYCAAQYRGSYRTTYDYWGQGTQVTVSS | low polyreactivity
18 | QVQLVESGGGLVQAGGSLRLSCAASGSISYEFAMGWYRQAPGKERELVASIDSDGAGTYYADSVKGRFTISRDNAKNTVYLQMNSLKPEDTAVYYGNAEWYYPYYYSRMDYWGQGTQVTVSS | low polyreactivity
19 | QVQLVESGGGLVQAGGSLRLSCAASGSISYEYAMGWYRPAPGKERELVASIDSDGAGTYYADSVKGRFTISRDNAKNTDYLQMNSLKPEDTAVYYCNAEWYYPYYYSRMDYWGQGTQVTVSS | low polyreactivity
20 | QVQLVESGGGLVQAGGSLRLSCAASGSISYFNDMGWYRQAPGKERELVAAIRDSGGITYADSVKGRFTISRDNAKYTVYLQMNSLKPEDTAVYYCATYGNEIYDYWGQGTQVTVSS | low polyreactivity
21 | QVQLVESGGGLVQAGGSLRLSCAASGSISYIYTMGWYRQAPGKERELVAAISGSGSTYYADSVKGRFTISRDNAKNTVYLQMNSLKPEDTAVHYCNAGSGGLNFQEVPQGYDYWGQGTQVTVSS | low polyreactivity
22 | QVQLVESGGGLVQAGGSLRLSCAASGSISYPNAMGWYRQAPGKERELVAAINSGDRTNYADSVKGRFTISRDNAKNTVYLQMNSLKPEDTAVYYCARRRYLLWGGYGYWGQGTQVTVSS | low polyreactivity

Row | Sequence | polyreactivity (PSR sort gate)
23 | QVQLVESGGGLVQAGGSLRLSCAASGSISYSNAMGWYRQAPGKERELVAAISWSTGRTYYADSVKGRFTISRDNAKNTVYLQMNSLKPEDTAVYYCATRLYPGGPYDYWGQGTQVTVSS | high polyreactivity
24 | QVQLVESGGGLVQAGGSLRLSCAASGSISYTYAMGWYRQAPGKERELVAAISYSEGITYYADSVKGRFTISRDNAKNTVYLQMNSLKPEDTAVYYCAVEGVYPYYDQSEYDYWGQGTQVTVSS | high polyreactivity
25 | QVQLVESGGGLVQAGGSLRLSCAASGSISYYYGKGWYRQAPGKERELVAAISTRGGSTYYADSVKGRFTISRDNAKNTVYLQMNSLKPEDTAVYYCNKVYYKRFYYWGQGTQVTVSS | high polyreactivity
26 | QVQLVESGGGLVQAGGSLRLSCAASGSIVEYYAMGWYRQAPGKERELVAAISTGGSTYYADSVKGRFTISRDNAKNTVYLQMNSLKPEDTAVYYCAAEDYHPGADTVGTGYDYWGQGTQVTVSS | low polyreactivity
27 | QVQLVESGGGLVQAGGSLRLSCAASGSIVNYNDMGCYRQAPGKERELVAAIDSSGTSTYYADSVKGRFTISRDNAKNTVYLQMNSLKPEDTAVYYCNADSSLGFGYWGQGTQVTVSS | low polyreactivity
28 | QVQLVESGGGLVQAGGSLRLSCAASGSIVTSYAIGWYRQAPGQERELVATITRRGGSTYYADSVKGRFTISRDNSKNTVYLQMNSLKPEDTAVSYCTARSSTIVYAGDYWGLGTQVTVSS | low polyreactivity
29 | QVQLVESGGGLVQAGGSLRLSCAASGSIVYPYAMGWNRQAPGKERELVAAITGHGGSTYYADSVKGRFTISRDNAKNTVYLQMNSMKPEDTAVYYCAAYRVVYSDAYYYWGQGTQVTVSS | low polyreactivity
30 | QVQLVESGGGLVQAGGSLRLSCAASGSIVYSYAMGWYRQAPGKERELVATISWSGGRTNYADSVKGRITISRDTAKNSVYLLMNSLKPVDTAVYYCAADIPPWGGDYWGQGTQVTVSS | low polyreactivity
31 | QVQLVESGGGLVQAGGSLRLSCAASGSIYDYNAMGWYRQAPGKERELVAAISASGGSTYYADSVKGRFTISRDNAKNTVYLQMNSLKPEDTAVYYCAAGYWSYWSLRMDYWGQGTQVTVSS | high polyreactivity
32 | QVQLVESGGGLVQAGGSLRLSCAASGSIYEINAMGWYRQAPGKERELVAAITGSGGSTHYADSVKGRFTISRDNAKNTVYLQMNSLKPEDTAVYYCAAVPRYQYGYWGQGTQVTVSS | low polyreactivity
33 | QVQLVESGGGLVQAGGSLRLSCAASGSIYGDYAMGWYRQAPGKERELVAAISWRGVRTYYADSVKGRFTISRDNAKNTVYLQMNSLNPEDTAVYYCDAEYYFVNRGAWYDYWGQGTQVTVSS | high polyreactivity
34 | QVQLVESGGGLVQAGGSLRLSCAASGSIYGYTMGWYRQAPGKERELVAAINRRADRTYYADSVKGRFTISRDNAKNTVYLQMNSLKPEDTAVYYCNKGGWYTLGYCGQGTQVTVSS | high polyreactivity
35 | QVQLVESGGGLVQAGGSLRLSCAASGSIYLWKAMGWYRQAPGKERELVAAIDSGGSTYAESVKGRFTISRDNAKNTVYLQMNSLKPEDTAVYYCAAEIPDEWPYDYWGQGTQVTVSS | low polyreactivity
36 | QVQLVESGGGLVQAGGSLRLSCAASGSIYPDYDMGWYRQAPGKERELVAAISSSGDSTYYADSVKGRFTISRDNAKNTVYLQMNSLKPEDTAVYYCAVDGTRSTSNGSEFTGYNYWGQGTHVTVSS | low polyreactivity
37 | QVQLVESGGGLVQAGGSLRLSCAASGSIYVWYDMGWYRQAPGKERELVDTISLSGVSTYYADSVKGRFTISRDNAKNTVYLQMNSLKPEDTAVYYCAADFVEQGEDDYWGQGTQVTVSS | low polyreactivity
38 | QVQLVESGGGLVQAGGSLRLSCAASGSIYYNAMGWYRQAPGKERELVAAISTSGGTTYYADSVKGRFTISRDNAKNTVYLQMNSLKPEDTAVYYCNALSVPDYDYWGQGTQVTVSS | high polyreactivity
39 | QVQLVESGGGLVQAGGSLRLSCAASGSIYYRYAMGWYRQAPGKERELVAAISKRGGSTYYADSVKGRFTISRDNAKITVYLQMNRLKPEDTAVYYCAAEVSSFLYTPSYSTDDYWGQGTQVTVSS | high polyreactivity
40 | QVQLVESGGGLVQAGGSLRLSCAASGSIYYWYASGWYIHAPGKERELVAAITSGGSTNYADSVKGRFTISRDNAKNTVYLQMNSLKPEDTAVYYCAASSVLTNHDYWGQGTQVTVSS | low polyreactivity
41 | QVQLVESGGGLVQAGGSLRLSCAASGSLFGRYAMGWYRQAPGTEREFVAAISRGATNTYYADSVKGRFTISRDNAKNTVYLQMNSLKPEDTAVYYCARTQRYDYGYDYWGQGTQVTVSS | low polyreactivity
42 | QVQLVESGGGLVQAGGSLRLSCAASGSLFRINAMGWYRQAPGKERELVAAITGRVGSTYYADTVKGRFTISRDNAQNTVYLQMNSLKPEDTAVYYCAARAGSSRYTREYRYDYWGQGTQVTVSS | high polyreactivity
43 | QVQLVESGGGLVQAGGSLRLSCAASGSLFTSYAMGWYRQAPGKERELVAAIRESGGRTYYADSVKGRFTISRDNAKNTVYLQMNSLKPEDTAVYYCAADSRVGFGRLYGYWGQGTQVTVSS | high polyreactivity

— the nanobody polyreactivity screen of Harvey et al. (2022)
